From a protein production outcome set (Wang et al. 2014)

Assay: label from the status in PepcDB records

| Sequence | protein production |
| --- | --- |
| MITIRNKIGQMLIMGFHGSELHDNSPVAQWLSNDGLGGVLLFDKDLSTGIYGKNLRNQAQIKQLIRQLNRYASMISGGNDNLPLFTAIDYEGGVVDRLSKIEGCPPTMKARELAKLSSDDFDEEVTQMAMTLQSLGFNLNFAPVVDLNLNAHAGIIGNLGRSFSSNPEVTIRLAKQFVDVFSRYGIACAYKHFPGHGSATGDTHEGFVDVTETFQTDELIPYRSLLKDLSNPFMVMTAHVINKHLDSKGLPATLSYDVLTLLLRQSIGYDGVIISDDLQMHAISNHYSLEDALCLTINAGADMVIFANQLGTITPPEVIDVIEKLVIDKQIPYQRIDEAYRRIVRLKQQIICSELINT | failed |
| MGLGSSNRQTDDWNAKLYDERHRFVSAYGEDLIQWLAPKEGECVLDLGCGTGDLTEQIHQLGSRVIGVDVSESMIEQAKGKFPHLDFQVAEATDLSFSEKFDAIFSNAVLHWIKDAEEALTVIYRSLKPGGRFVAEFGGKGNVETIVNTLADTMSQADSRWSKEELPWFFPSIGQYTSLMEQVGFRVTHALHFNRPTLLEDGDGIRHWLAMFAESVLEGKSETERAEIVRFVEAEVKDALFDGTNWWADYKRIRVVGMKQL | failed |
| MSASIMTWPVLSVVTFLPVLGAALVYLARGEDEAARRNARWISLWTTLITFAVSLLLVWHFDPANPGFQFVEKAPWLGNTITYHMGLDGISLPLVILTTAIMPFCIIASWRSVTVRVREYMIAFLILETLMIGTFSALDLVLFYLFFEGGLIPMFLIIGIWGGPRRVYASFKFFLYTLLGSVLMLLAIMALYWNAGTTDIPTLMRTSVPSGLQTWAWLAFFASFAVKMPMWPVHTWLPDAHVEAPTAGSVVLAAILLKMGGYGFLRFSLPMFPDASAYFAPLIYTLSVIAIIYTSLVALMQEDIKKLIAYSSVAHMGFVTMGIFAGTTQGVAGAVFQMVSHGIVSGALFLCVGVVYDRMHTREIAAYGGLVNRMPLYALVFMVFTMANVGLPGTSGFVGEFLTLLGTFRVNIPTATLATTGVILSAGYALWLYRKVVFGAMTKPALASIKDLTWREGLMMAPLLVLTILFGFYPKPVLDMSAASVQQLVNNYAAAVTAVKAAALP | failed |
| MSQPLNVAVVGATGSVGEALVGLLDERDFPLHRLHLLASAESAGQRMGFAESSLRVGDVDSFDFSSVGLAFFAAAAEVSRAHAERARAAGCSVIDLSGALEPSVAPPVMVSVNAERLASQAAPFLLSSPCAVAAELCEVLAPLLATLDCRQLNLTACLSVSSLGREGVKELARQTAELLNARPLEPRLFDRQIAFNLLAQVGAVDAEGHSAIERRIFAEVQALLGERIGPLNVTCIQAPVFFGDSLSVTLQCAEPVDLAAVTRVLDATKGIEWVGEGDYPTVVGDALGQDETYVGRVRAGQADPCQVNLWIVSDNVRKGAALNAVLLGELLIKHYL | not failed |
| MKKKALLPLFLGIMIFLAGCDYSTPEKQDGFFFNTFVQPMKHLLQWLGNDVFHNNFGLAIIVLVLFIRLILLPFMLSNYKNSHMMREKMKVAKPEVDGIQEKVKRARTQEEKMAANQELMEVYKKYDMNPMKSMLGCLPILIQMPIIMGLYFVLKDKLVNGLSEHPHFLWFNLTKPDIWITVIAGVLYFIQAVVSSKTMPQEQRQMGYMMMVISPIMIIWISLQASSALGLYWSVSALFLVIQTHFANIYYSKLAKKEVQPFIEKYEREHNPYSKKKGKNTQVVSKKNKK | failed |
| MKNYQKMSVAQDARVELHDSLALTGAEVSINHLPAGAGVPFVHSHKQNEEIYGILSGKGFITIDGEKIELQAGDWLRIAPDGKRQISAASDSPIGFLCIQVKAGSLEGYTMTDGVVQLEHHHHHH | not failed |
| MNSLSLFSPSFTDSVFDALDRSLGPNFGVFAPIKNASCGMPSVDIRETEKAYVMEVDLPGYSEKDVEISLKDRLMTISSSKKEEKEDKGAEYIIKERSSRHFMRRFTLPEDINSDEVSAKFENGVLVVNIPRKPDTQPKQIEIKTA | failed |
| MYPVDLHMHTVASTHAYSTLSDYIAQAKQKGIKLFAITDHGPDMEDAPHHWHFINMRIWPRVVDGVGILRGIEANIKNVDGEIDCSGKMFDSLDLIIAGFHEPVFAPHDKATNTQAMIATIASGNVHIISHPGNPKYEIDVKAVAEAAAKHQVALEINNSSFLHSRKGSEDNCREVAAAVRDAGGWVALGSDSHTAFTMGEFEECLKILDAVDFPPERILNVSPRRLLNFLESRGMAPIAEFADL | not failed |
| MLWRKRLFAHLYPGLSARHEALVAERKRALFREALRRARPERVLEIGPGPGTNLAHLPEGVAYLALEPNPFFHPRLREEARKRGLALTLLPGRAEAIPLPGGSVDLVVATLVLCSVADPEKAIEEVHRVLRPGGAYLFLEHVAAPKGAPLRLLQEAATPFFVFFGDGCHPNRKTLAQIQARFPRVEAEAFSLPLPVVAPHVAGLAFKELEHHHHHH | failed |
| MSPPPAPNPIRDSLIARADALREGGAPAEARDLYRLVLDRHPGHGPALAGLGRILLGLGQPTAALESLGAAVAADPTRLDWLADLAVALAGARRPAEALSAAEGLPATAGALGFRADRLEELGRRDQAIALLDDALRRHPDEAELHRRQGVLLRRAGRAAQAIAPWRALVALRPGDAAAWSSLGAGLGESGLDEEAEKALRRAVALAADEPDWTYNLAHFLIERDRLEDALPLLDAAVARAPERAHYHTNLGVCRLGLGDIKGAIAAHRQALALDPDEPEARYDLAWALLLAGAWEEGWAAHEARWRMGRFTGRRAAGPAPTDWPMPLWDGQPLGPGRTLLLHAEQGFGDSLMMSRLIIPALARAGDAQGIIECPPSLVGLLAQSLGPALGPAVRVVAQAESPPAADAHLPLMSLPHRLGVDSETIPGPDRWLRAEPAPRPPSSPPRVGLVWAGDPGNRMDRLRSCPATALRPLFDRVKDAGLDIAWTGLQLGPPAADLPDLPAALAPGGDFAATARVVAALDLVIGVDTAVIHLAGGLGVETWVMLAYVPDYRWMMDRDDSPWYPSARLFRQSRRGDWRGVIAQVAAALTKRFG | failed |
| MKFSEECRSAAAEWWEGSFVHPFVQGIGDGTLPIDRFKYYVLQDSYYLTHFAKVQSFGAAYAKDLYTTGRMASHAQGTYEAEMALHREFAELLEISEEERKAFKPSPTAYSYTSHMYRSVLSGNFAEILAALLPCYWLYYEVGEKLLHCDPGHPIYQKWIGTYGGDWFRQQVEEQINRFDELAENSTEEVRAKMKENFVISSYYEYQFWGMAYRKEGWSDSAIKEVEECGASRHNG | not failed |
| MSLESMLSHPPIPIADMAEHTERLKANDSLKLSQEYESIDPGQQFTWEHSNLEVNKPKNRYANVIAYDHSRVILQPIEGIMGSDYINANYVDGYRRQNAYIATQGPLPETFGDFWRMVWEQRSATIVMMTRLEEKSRIKCDQYWPNRGTETYGFIQVTLLDTIELATFCVRTFSLHKNGSSEKREVRQFQFTAWPDHGVPEYPTPFLAFLRRVKTCNPPDAGPIVVHCSAGVGRTGCFIVIDAMLERIKPEKTVDVYGHVTLMRSQRNYMVQTEDQYSFIHEALLEAVGCGNTEVPARSLYAYIQKLAQVEPGEHVTGMELEFKRLANSKAHTSRFISANLPCNKFKNRLVNIMPYESTRVCLQPIRGVEGSDYINASFIDGYRQQKAYIATQGPLAETTEDFWRMLWENNSTIVVMLTKLREMGREKCHQYWPAERSARYQYFVVDPMAEYNMPQYILREFKVTDARDGQSRTVRQFQFTDWPEQGVPKSGEGFIDFIGQVHKTKEQFGQDGPISVHCSAGVGRTGVFITLSIVLERMRYEGVVDIFQTVKMLRTQRPAMVQTEDEYQFCYQAALEYLGSFDHYATEGHHHHHH | not failed |
| MVTVMRTLMPKIGRIAAKMTLCALCVAPMFSVQATELNWPEQPFRYYADNDSLKDLLNNFGANYRVSVSVSDKVNDRVSGRFTPEDPAEFLDYLAQVYNLMWYFDGAVLHVYKATETRSRLLQLELLTARELRSTLISTGVWDARYGWRAAENKGLVYLAGPPRYVELVVQTAEALESRLLQKSNSTDELFVELIPLKYASATDRSISYRDQSITVPGIASVLSRVVGGVQTQITDSASVQTSSVNGLPAEAAKPRGKTASVHGGATVEAEPGLNAIIVRDTQARLPLYRKLVAQLDQPQSRIEVALSIVDISANDLRQLGVDWRAGVSVGNNRIVDIKTTGDVDNGDVTLGSGQSFKSLLDSTNLNYLLAQIRLLESKGSAQVVSRPTLLTQENVEAVLNNSSTFYVKLVGKETAALEEVTYGTLLRIVPRIVGDRFATRPEINLSLHLEDGAKIPDGGVDDLPSVRKTEISTLATVKQGQSLLIGGVYRDEVSHQLRKVPLLGDIPYLGALFRSNTNTTRRTVRMFIIEPRIVVDGIGDSVLIGNEHDLRPSIGQLNNISNNSAEFKSVVEVFSCTSKTQAERYQQDLLSQQKSSLLTQCQLPSGQVGWRVKVAECDLSQAECVRPSEEP | failed |
